This note sets out measurements from the supplement of paper PMC12042874.

± gives the uncertainty stated by the source.

The nature of the data set: amyloid nucleation score (Sup35N fusion, yeast selection) (log enrichment); library NNK1; higher = more nucleation; inactive = no reads after selection. In outline:
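On medium lacking adenine and uracil, psi-negative yeast expressing peptides of 20 random codons fused to Sup35N were grown 7 days at 30°C after a 24-hour induction with 100 μM copper sulfate. Illumina sequencing of input and output plasmid inserts gave the reads, and sequences under 100 input reads were excluded. The nucleation score is the DiMSum log enrichment of output over input reads, centred on the mode score of non-aggregating sequences.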
WCCWVMCV gave an amyloid nucleation score of 6.726 ± 0.061.
To SFNKDRKIYTRPELRFMMFL belongs -0.707 ± 1.7; to ANLVWDYFQVSTSPMCPLVQ, -2.07 ± 2.4.
To NCSGVFKGKSLTSCGT belongs -0.038 ± 0.21; to LIRTLANWLSIPHVLI, -0.351 ± 0.3.
To EFEWNLFPICNTNMI belongs 1.66 ± 0.8.
In turn, YVEVQVIKWVMKSEVHRGAW returned an amyloid nucleation score of 1.27 ± 0.48.
Under ANAELVYNRLFRSTNPLGCV stands “inactive”; under FYPLF, 1.27 ± 0.66; under PSQHSIPLLTQVYVLL, 5.54 ± 0.059.
Under ISVGCF stands 0.201 ± 0.49; under YSLTYVNSYLFGINDCKGPD, 8.164 ± 0.054; under VTNVSLDCGALCSCELCKKS, 7.155 ± 0.063.
To RSWKNKFYPVCFSKSGSRF belongs -0.215 ± 0.41; to TKIKYGDKSPKHYYMAS, -0.174 ± 0.6; to GGSFYKAILFNRKCVYVGSR, 0.942 ± 0.51.
For NSMLNDCHDKLIIGFSEGWS, the amyloid nucleation score amounted to 0.091 ± 0.47.
IFLPYI returned an amyloid nucleation score of -0.383 ± 1.4.
Under TIIPLHIRAIYA stands 0.956 ± 0.28; under KWLTFVMDMSDLCYSSFNVN, “inactive”; under YTCYIVKGLVVLTVACGG, -0.225 ± 0.98.
Under SAVSMVR stands -0.594 ± 0.55; under LVCFHQRVKIVRYCRTGTLT, -0.095 ± 0.61; under MDGFERWGSYVTWSQLVMIR, -0.837 ± 0.98.
As to LYTITLLIALALTTEQAPPR, the amyloid nucleation score was 1.67 ± 0.28.
As to NNLTVLIWVMPMDRI, the amyloid nucleation score amounted to 1.99 ± 0.39.
In the case of HVYVWKRTVPGIGRDQHNSR, the amyloid nucleation score amounted to 1.81 ± 0.6.
Under LKKHADNSLDVRS stands “inactive”; under RACVNSHQRMGGDGSLSMVL, 2.48 ± 0.15; under GRGANLCYRTRTVLLVNNLS, -0.199 ± 1.2.
Under TIMFLVITIPRFHNDLMVLS stands -0.79 ± 0.37; under TFGLRFVYMAHLVVWCADHR, 0.036 ± 0.33; under LPKKDNHSSTNA, -1.77 ± 2.4.
As for VGSQKCLYCGVAYSEGVWIY, the amyloid nucleation score result is “inactive”.
For DPVVFDSWELLKQWISCKRC, the amyloid nucleation score is 0.226 ± 1.6.
To YAAGGIRKSVGSTVRSPWGA belongs 0.903 ± 0.84; to VEFFFDF, -0.417 ± 0.77.
To RMYITMSQSRKVVICVMMVM belongs -0.164 ± 1.1; to DTLLKF, 0.916 ± 0.74; to RGELVPHVVMYNLWKL, 4.21 ± 0.082.
To IVMCEAYFK belongs “inactive”; to SDQSPFLIGVPWFVIYNRGG, 1.69 ± 0.11.
Regarding TVISV, the amyloid nucleation score is -1.47 ± 0.5.
Substance AFNGTSAGMCKWGACTEWCV gave an amyloid nucleation score of -0.382 ± 0.28.
Under PLLEATNCDLHGLVRLLMRF stands 0.651 ± 0.72.
To AYIVNIELGNRTS belongs 7.04 ± 0.056; to VAYSVI, 1.02 ± 0.66; to FIDIACAHFGMKSCVVL, 1.32 ± 0.9.
Under LMPARLNYERTALSMPKWSE stands -0.38 ± 0.63; under QFLLLPGNHHRFRSRHIRTL, -0.255 ± 0.26; under PITMQSMSFFRRVLLVFFLY, 0.813 ± 0.5.
For the substance LHSPDFDLYYVLRILACDTQ, the amyloid nucleation score is -0.866 ± 1.7.
Under ISINLRLVRHRGWGNISCWR stands 2.2 ± 0.33.
With FLMGSYMFTTTVQISHDLMW, the amyloid nucleation score is -0.354 ± 0.61.
To YLLQSAIFGAGVHT belongs 0.672 ± 0.39.
Under LILFLASV stands 1.35 ± 0.27; under SWRLMIRYVDTPNSWNFSTM, -0.183 ± 0.67.
